According to article PMC7658645:

Experiments:
Test in all cases: dot blot (nitrocellulose filter binding)
Conditions in all cases: 5 mM Mg2+; Dot blot/aptamer blot: 20 mM Tris-HCl, 100 mM NaCl, 5 mM MgCl2, 0.1% BSA (pH not given), 50 nM aptamer in dot blot (membranes equilibrated at 4 C), blots 1 h …
[1] = target: GST (glutathione S-transferase tag) (UniProt P08515)
[2] = test system: MBP (maltose-binding protein tag)
[3] = target: His-TrxA (His-tagged thioredoxin 1) (UniProt P0AA25)

Which Kd [1] does the source give for “ATACGACTCACTATTAGGGACAAAGCTGACAACCCTTTCATAATCTAACTACATTTATGTGCTAGACTACTGACTAC [G1]” here?
The Kd was 59 nM.

Which Kd [2] does the source give for “ATACGACTCACTATTAGGGACCACATAAACATGCATCGCTCAATAACGGGATATTGTTGTGCTAGACTACTGACTACAA [M1]” here?
The Kd was 86 nM.

Which Kd [3] does the source give for “ATACGACTCACTATTAGGGATGTCCACCATATAGATCGATTTAAGTCCCTCGTTATTAATGCTAGACTACTGACTACAA [H1]” here?
Its Kd is 173 nM.
